This is an account of results in patent US20220073630A1 (Hoffmann-La Roche, published 2022).

The experiment deals with T1, murine fibroblast activation protein (FAP) (murine, UniProt P97321 1-761).
T1 construct: whole, on cells; also called mFAP; murine FAP
T1 sequence: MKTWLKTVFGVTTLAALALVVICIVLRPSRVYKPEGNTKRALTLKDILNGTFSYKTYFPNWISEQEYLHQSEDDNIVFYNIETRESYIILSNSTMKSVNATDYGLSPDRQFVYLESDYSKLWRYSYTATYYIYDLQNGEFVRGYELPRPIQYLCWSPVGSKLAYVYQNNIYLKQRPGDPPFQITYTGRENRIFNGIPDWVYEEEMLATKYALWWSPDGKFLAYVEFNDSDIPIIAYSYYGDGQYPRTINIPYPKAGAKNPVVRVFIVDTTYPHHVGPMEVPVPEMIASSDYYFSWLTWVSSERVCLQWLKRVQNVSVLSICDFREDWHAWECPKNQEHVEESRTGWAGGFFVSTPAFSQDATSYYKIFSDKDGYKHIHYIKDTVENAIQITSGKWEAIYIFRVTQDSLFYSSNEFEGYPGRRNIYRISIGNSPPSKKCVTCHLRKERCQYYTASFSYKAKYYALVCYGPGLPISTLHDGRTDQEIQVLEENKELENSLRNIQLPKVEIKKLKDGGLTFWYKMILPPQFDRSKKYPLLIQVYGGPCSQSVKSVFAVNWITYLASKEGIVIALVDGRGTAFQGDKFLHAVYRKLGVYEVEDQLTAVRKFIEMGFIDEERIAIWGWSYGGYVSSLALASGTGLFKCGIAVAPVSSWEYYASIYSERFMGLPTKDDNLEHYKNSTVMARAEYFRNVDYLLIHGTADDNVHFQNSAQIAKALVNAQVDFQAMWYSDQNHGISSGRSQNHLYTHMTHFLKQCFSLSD
Put plainly: flow cytometry on target cells (data not shown). Background: In flow cytometry, cells or beads pass a laser one at a time.

B1: m38-pMHC-I-anti-FAP-IgG (other)
heavy 1: SSPPMFRVGCGGSGGGGSGGGGSIQKTPQIQVYSRHPPENGKPNILNCYVTQFHPPHIEIQMLKNGKKIPKVEMSDMSFSKDWSFYILAHTEFTPTETDTYACRVKHASMAEPKTVYWDRDMGGGGSGGGGSGGGGSGGGGSGPHSLRYFVTAVSRPGLGEPRYMEVGYVDDTEFVRFDSDAENPRYEPRARWMEQEGPEYWERETQKAKGNEQSFRVDLRTLLGCYNQSKGGSHTIQVISGCEVGSDGRLLRGYQQYAYDGCDYIALNEDLKTWTAADMAALITKHKWEQAGEAERLRAYLEGTCVEWLRRYLKNGNATLLRTDSPKAHVTHHSRPEDKVTLRCWALGFYPADITLTWQLNGEELIQDMELVETRPAGDGTFQKWASVVVPLGKEQYYTCHVYHQGLPEPLTLRWGSEVQLLESGGGLVQPGGSLRLSCAASGFTFSSHAMSWVRQAPGKGLEWVSAIWASGEQYYADSVKGRFTISRDNSKNTLYLQMNSLRAEDTAVYYCAKGWLGNFDYWGQGTLVTVSSAKTTAPSVYPLAPVCGGTTGSSVTLGCLVKGYFPEPVTLTWNSGSLSSGVHTFPALLQSGLYTLSSSVTVTSNTWPSQTITCNVAHPASSTKVDKKIEPRVPITQNPCPPLKECPPCAAPDAAGGPSVFIFPPKIKDVLMISLSPMVTCVVVDVSEDAPDVQISWFVNNVEVHTAQTQTHREDYNSTLRVVSALPIQHQDWMSGKEFKCKVNNRALGSPIEKTISKPRGPVRAPQVCVLPPPAEEMTKKEFSLSCAITGFLPAEIAVDWTSNGRTEQNYKNTATVLDSDGSYFMVSKLRVQKSTWERGSLFACSVVHEGLHNHLTTKTISRSLGK
heavy 2: EVQLLESGGGLVQPGGSLRLSCAASGFTFSSHAMSWVRQAPGKGLEWVSAIWASGEQYYADSVKGRFTISRDNSKNTLYLQMNSLRAEDTAVYYCAKGWLGNFDYWGQGTLVTVSSAKTTAPSVYPLAPVCGGTTGSSVTLGCLVKGYFPEPVTLTWNSGSLSSGVHTFPALLQSGLYTLSSSVTVTSNTWPSQTITCNVAHPASSTKVDKKIEPRVPITQNPCPPLKECPPCAAPDAAGGPSVFIFPPKIKDVLMISLSPMVTCVVVDVSEDAPDVQISWFVNNVEVHTAQTQTHREDYNSTLRVVSALPIQHQDWMSGKEFKCKVNNRALGSPIEKTISKPRGPVRAPQVYVLPPCAEEMTKKEFSLWCMITGFLPAEIAVDWTSNGRTEQNYKNTATVLDSDGSYFMYSKLRVQKSTWERGSLFACSVVHEGLHNRFTTKTISRSLGK
light: EIVLTQSPGTLSLSPGERATLSCRASQSVSRSYLAWYQQKPGQAPRLLIIGASTRATGIPDRFSGSGSGTDFTLTISRLEPEDFAVYYCQQGQVIPPTFGQGTKVEIKRADAAPTVSIFPPSSEQLTSGGASVVCFLNNFYPKDINVKWKIDGSERQNGVLNSWTDQDSKDSTYSMSSTLTLTKDEYERHNSYTCEATHKTSTSPIVKSFNRNEC
notes: also called mCMV m38-pMHC-I-anti-FAP-IgG; pMHC-I-IgG
For the molecule B1, the binding result is on record as “binds”.

B2: IE3-pMHC-I-anti-FAP-IgG (other)
heavy 1: RALEYKNLGCGGSGGGGSGGGGSIQKTPQIQVYSRHPPENGKPNILNCYVTQFHPPHIEIQMLKNGKKIPKVEMSDMSFSKDWSFYILAHTEFTPTETDTYACRVKHASMAEPKTVYWDRDMGGGGSGGGGSGGGGSGGGGSGPHSLRYFVTAVSRPGLGEPRYMEVGYVDDTEFVRFDSDAENPRYEPRARWMEQEGPEYWERETQKAKGNEQSFRVDLRTLLGCYNQSKGGSHTIQVISGCEVGSDGRLLRGYQQYAYDGCDYIALNEDLKTWTAADMAALITKHKWEQAGEAERLRAYLEGTCVEWLRRYLKNGNATLLRTDSPKAHVTHHSRPEDKVTLRCWALGFYPADITLTWQLNGEELIQDMELVETRPAGDGTFQKWASVVVPLGKEQYYTCHVYHQGLPEPLTLRWGSEVQLLESGGGLVQPGGSLRLSCAASGFTFSSHAMSWVRQAPGKGLEWVSAIWASGEQYYADSVKGRFTISRDNSKNTLYLQMNSLRAEDTAVYYCAKGWLGNFDYWGQGTLVTVSSAKTTAPSVYPLAPVCGGTTGSSVTLGCLVKGYFPEPVTLTWNSGSLSSGVHTFPALLQSGLYTLSSSVTVTSNTWPSQTITCNVAHPASSTKVDKKIEPRVPITQNPCPPLKECPPCAAPDAAGGPSVFIFPPKIKDVLMISLSPMVTCVVVDVSEDAPDVQISWFVNNVEVHTAQTQTHREDYNSTLRVVSALPIQHQDWMSGKEFKCKVNNRALGSPIEKTISKPRGPVRAPQVCVLPPPAEEMTKKEFSLSCAITGFLPAEIAVDWTSNGRTEQNYKNTATVLDSDGSYFMVSKLRVQKSTWERGSLFACSVVHEGLHNHLTTKTISRSLGK
heavy 2: EVQLLESGGGLVQPGGSLRLSCAASGFTFSSHAMSWVRQAPGKGLEWVSAIWASGEQYYADSVKGRFTISRDNSKNTLYLQMNSLRAEDTAVYYCAKGWLGNFDYWGQGTLVTVSSAKTTAPSVYPLAPVCGGTTGSSVTLGCLVKGYFPEPVTLTWNSGSLSSGVHTFPALLQSGLYTLSSSVTVTSNTWPSQTITCNVAHPASSTKVDKKIEPRVPITQNPCPPLKECPPCAAPDAAGGPSVFIFPPKIKDVLMISLSPMVTCVVVDVSEDAPDVQISWFVNNVEVHTAQTQTHREDYNSTLRVVSALPIQHQDWMSGKEFKCKVNNRALGSPIEKTISKPRGPVRAPQVYVLPPCAEEMTKKEFSLWCMITGFLPAEIAVDWTSNGRTEQNYKNTATVLDSDGSYFMYSKLRVQKSTWERGSLFACSVVHEGLHNRFTTKTISRSLGK
light: EIVLTQSPGTLSLSPGERATLSCRASQSVSRSYLAWYQQKPGQAPRLLIIGASTRATGIPDRFSGSGSGTDFTLTISRLEPEDFAVYYCQQGQVIPPTFGQGTKVEIKRADAAPTVSIFPPSSEQLTSGGASVVCFLNNFYPKDINVKWKIDGSERQNGVLNSWTDQDSKDSTYSMSSTLTLTKDEYERHNSYTCEATHKTSTSPIVKSFNRNEC
notes: Same build as m38-pMHC-I-anti-FAP-IgG, with the control peptide IE3; also called mCMV IE3-pMHC-I-anti-FAP-IgG; control fusion protein
As to B2, the binding result is given as “binds”.
